The results in this text go back to patent US20090041770A1.

In experiment [1] the target is human FcRn fused to a His-tag and glutathione S transferase (FcRn-His-GST), complex of FcRn heavy chain with beta-2-microglobulin (human) (UniProt P55899). Put plainly: AlphaScreen competition, […] NaCl.
For experiment [2] the target is unchanged. Put plainly: AlphaScreen competition, 25 mM NaCl.
Experiment [3] shares this target. As to the kind of experiment: AlphaScreen competition. In general terms: In Alpha technology, singlet oxygen from a donor bead excites a nearby acceptor bead.

P257L AC10 - IgG1 (antibody) came in with a FcRn Binding Fold-Increase in experiment [1] of 44.
In turn, ^281S/V308Y (antibody) displayed a Medan Fold Increase in experiment [2] of 1.46.
In experiment [2], ^281D (antibody) came in with a Medan Fold Increase of 0.89.
Consider V308F AC10 - IgG1 (antibody), for which the FcRn Binding Fold-Increase in experiment [1] is 46.1.
In the case of P257N/^281S (antibody), in experiment [2], the Medan Fold Increase stood at 5.99.
As to V240I (antibody), in experiment [3], the FcRn Binding ratio Variant / WT was 1.28.
For L328F (antibody), in experiment [3], the FcRn Binding ratio Variant / WT was 2.06.
For the substance K274E (antibody), the FcRn Binding ratio Variant / WT in experiment [3] was determined as 1.05.
The same measure, in the same setting: the value for P228Y (antibody) was 1.45; that for S239M (antibody) was 1.03; that for S298E (antibody) was 1.54.
As to E269S (antibody), in experiment [3], the FcRn Binding ratio Variant / WT was 1.31.
Still for that read-out and setting: the value for L328I/I332E (antibody) was 2.21.
On to N276V (antibody), for which, in experiment [3], the FcRn Binding ratio Variant / WT came to 1.27.
The same measure, in the same setting: the value for G237E (antibody) was 1.36; that for P232K (antibody) was 1.56.
N325F (antibody): the FcRn Binding ratio Variant / WT in experiment [3] is 1.22.
As for E269F (antibody), the FcRn Binding ratio Variant / WT in experiment [3] is 1.51.
The same measure, in the same setting: the value for F241L (antibody) was 1.99; that for P230G (antibody) was 1.16.
The same measure, in the same setting: the value for P238W (antibody) was 1.3; that for Y278I (antibody) was 1.52.
In the case of ^281T (antibody), in experiment [2], the Medan Fold Increase worked out at 0.56.
Take P271V (antibody): in experiment [3], the FcRn Binding ratio Variant / WT turned out to be 1.06.
The same measure, in the same setting: the value for L235V (antibody) was 1.31.
As to R292Y (antibody), the FcRn Binding ratio Variant / WT in experiment [3] is 1.36.
The same measure, in the same setting: the value for A327L (antibody) was 1.55; that for E318Y (antibody) was 6.14; that for V263I (antibody) was 2.71.
On the same count and under the same terms, the value for A330P (antibody) was 5.48; that for G236V (antibody) was 1.35.
Regarding V284L (antibody), in experiment [3], the FcRn Binding ratio Variant / WT worked out at 1.51.
Still for that read-out and setting: the value for F241E (antibody) was 1.09.
Still for that read-out and setting: the value for T335V (antibody) was 1.25; that for V264I (antibody) was 1.32.
On the same count and under the same terms, the value for V282E (antibody) was 1.91.
Turning to T225K (antibody), the FcRn Binding ratio Variant / WT in experiment [3] is 5.68.
Regarding ^281S/V308F (antibody), the Medan Fold Increase in experiment [2] amounted to 2.13.
Take I332E (antibody): in experiment [3], the FcRn Binding ratio Variant / WT worked out at 1.32.
As to K222Y (antibody), the FcRn Binding ratio Variant / WT in experiment [3] came out at 1.31.
As to V262E (antibody), the FcRn Binding ratio Variant / WT in experiment [3] amounted to 9.27.
As to T260H (antibody), the FcRn Binding ratio Variant / WT in experiment [3] came out at 7.3.
Same read-out and setting: the value for E283H (antibody) was 6.25; that for E272P (antibody) was 2.17.
The same measure, in the same setting: the value for D249Q (antibody) was 2.06; that for V264F (antibody) was 1.07.
